Experimental data taken from publication PMC4902918, “Production in Pichia pastoris of complementary protein-based polymers with heterodimer-forming WW and PPxY domains” (Microbial Cell Factories, 2016).
No end group written: not given here. C4^P polymer block = not defined here; O‑glycan = not defined here

B1: C4^P-D^PPxY protein polymer (C4^P polymer with a C-terminal PPxY proline-rich ligand), O-glycosylated (other)
chain: {C4^P polymer block}-EYPPYPPPPYPS(O‑glycan)GPAGG
modifications: reading uncertain; also: O-glycans heterogeneous, tentatively Man3 to Man7, mostly phosphorylated in diester linkage, minor fraction nonglycosylated

What was measured:
[1] = target: T1, C4^P-D^WW protein polymer (C4^P polymer with a C-terminal WW domain WWP1-1) (human); test: other fluorescence titration; steady-state tryptophan fluorescence (excitation 295 nm, emission 340 nm); 500 uL of 10 uM C4^P-D^WW in the cuvette, 500 uM ligand added stepwise up to ~24 uM; 10 mM sodium phosphate pH 7, RT; triplicate, fit on averaged data; conditions: both partners purified
[2] = target: T1, C4^P-D^WW protein polymer (C4^P polymer …); test: ITC; MicroCal VP-ITC, 25 °C, 10 mM sodium phosphate pH 7; 200 uM C4^P-D^WW (1.4 mL) in the cell, 2.9 mM ligand in the syringe, 63 injections of 4 uL; triplicate, Kd values averaged; conditions: both partners purified

T1 sequence (chain, as listed by the source): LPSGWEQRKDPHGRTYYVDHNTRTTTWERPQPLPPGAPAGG

| Binder | Kd [1] [µM] | Kd [2] [µM] | stoichiometry N [2] |
| --- | --- | --- | --- |
| B1 | 2.5 | 9.3 | ~0.9 |
| {C4^P polymer block}-EYPPYPPPPYPAGPAGG (other, reading uncertain; also: nonglycosylated) [C4^P-D^PPxY* protein polymer (Ser12 to Ala mutant of the PPxY module, nonglycosylated)] | 2.7 | 9.2 | ~0.9 |
